The source of these data is publication PMC5123055.

One assay has as its target ribosome (S. cerevisiae). Briefly: quantitative ribosome binding assay (ribosomes isolated from cell extract, immunoblot with αmyc). The conditions noted are these: ribosomes isolated under low-salt conditions; parent: 45.4. For orientation: In western blotting, separated proteins are transferred to a membrane and probed.
Assay [1] has as its target ribosome (S. cerevisiae) (S. cerevisiae (endogenous in yeast extract)). Briefly: co-sedimentation; ribosome binding assay: cell extract (cycloheximide) spun through a low-salt sucrose cushion (25% sucrose, 20 mM Hepes/KOH pH 7.4, 120 mM potassium acetate, 2 mM magnesium acetate), 400,000 g, 4 °C, 25 min; immunoblot of supernatant and ribosomal pellet; strains: wild type, Δzuo1Δssz1, RAC-H128Q, Δssb1Δssb2 with Ssb1 variants.

“N-terminally myc-tagged Ssb1 (mycSsb1) (from UniProt P11484) K567E; R568E; K603D; R604D”: the response (% of total mycSsb1) in the assay with ribosome (S. cerevisiae) is 3.
Consider “N-terminally myc-tagged Ssb1 (mycSsb1) (from UniProt P11484) K567E; R568E; R596D; K597D; K603D; R604D”, for which, in the assay with ribosome (S. cerevisiae), the response (% of total mycSsb1) worked out at 1.9.
As to “mycSsb1 D1 (R596D/K597D) (from UniProt P11484 1-613) (natural protein)”, the ribosome-binding, percent of the mycSsb1 control in assay [1] is < 50%.
The same measure, in the same setting: the result for “mycSsb1 D2 (K603D/R604D) (from UniProt P11484 1-613) (natural protein)” reads < 50%; that for “mycSsb1 LBC (K567E/R568E) (from UniProt P11484 1-613) (natural protein)”, < 50%.
